# Residue numbers refer to the chain shown, from its start. Names and notes keep the numbering of the source. Values joined by “and” are separate entries in the source; they are usually repeats but may differ in a detail not shown here. Identical values can stand only once.
# B1: m3: m3 mutant guanine sensing aptamer RNA (SEQ ID NO: 4); G38 replaced with adenine in the L2 loop (nucleic acid)
# chain: CACUCAUAUAAUCGCGUGGAUAUGACACGCAAGUUUCUACCGGGCACCGUAAAUGUCCGACUAUGGGUG
# modifications: RNA, backbone and methylation of C not given here
# notes: G38 replaced with adenine in the L2 loop
# B2: m2: m2 mutant guanine sensing aptamer RNA (SEQ ID NO: 3); G37A in L2 and C61U in L3 (nucleic acid)
# chain: B1 chain with G24A, A25G, C48U
# modifications: RNA, backbone and methylation of C not given here
# notes: G37A in L2 and C61U in L3
# B3: m8: m8 mutant guanine sensing aptamer RNA (SEQ ID NO: 9); A19G and U77C in the P1 hairpin (nucleic acid)
# chain: B1 chain with A6G, A25G, U64C
# modifications: RNA, backbone and methylation of C not given here
# notes: A19G and U77C in the P1 hairpin
# Tests used:
# [1] = Constant-force (CF) single-molecule optical tweezers folding assay of guanine-aptamer RNAs in guanine buffer; format: physicochemical; settings: for Folding rate kf / Transition distance ΔX / Unfolding rate ku / ΔG (0): 200 nM G; for ΔG (0): zero force
# From the text: The aptamer folding was monitored in real time using a constant-force (CF) assay. Equilibrium sampling techniques provide unprecedented insights into the rare events in the course of folding that are otherwise difficult to identify. The technique also allows for determination of the kinetic rates that has not been fully investigated in the guanine riboswitch. The relative dynamics of the helices have been investigated in ensemble and smFRET experiments, which indicated a non-dynamic P1-P3, upon which the P2 helix switches conformations. As shown in FIG. 6A (left panel), the RNA oscillated between the linear and the hairpin conformations (E↔D↔C) at 13 pN. The distances ΔXED=7.1±0.4 nm and ΔXDC=7.9±0.4 nm correspond to the folding of a 17±1 nt (P2) and 19±1 nt (P3) respectively (FIGS. 7A-B). The conversion of distances to nucleotides in CF assay are described in Table 2.
# A miniaturized dual beam optical tweezers instrument was constructed with a sampling rate of 0.4, 4 and 40 kHz. Typically, in the tweezers set up (FIGS. 2A-E), a single-molecule of RNA is held between two beads via ˜550 nucleotide (nt) long Handles A and B. Preparation of Handles and the RNA is described in the section above. The streptavidin coated polystyrene bead (diameter 1.5-1.9 μm, Spherotech Inc.) is fixed on a micropipette via suction, and the anti-digoxigenin coated bead (diameter 4.0-4.9 μm, Spherotech Inc.) is held in the dual counter-propagating laser beam. The trap stiffness, K is measured at 0.04-0.06 pN/nm from the power spectrum analysis of the Brownian motion of the trapped bead. For power spectrum analysis, a polystyrene bead with diameter ˜4.6 μm is trapped in the counter-propagating laser beam in aqueous buffer with a fixed trap position. […] The average from 10 beads yielded K˜0.049±0.0008 pN/nm, and the stoke's drag coefficient, y=0.0364±0.0002 pN. s/μm. […] However, the autocorrelation time (τ0) defined as the τ1=1/2πfc as described by Zoldak et al., “Ultrafast folding kinetics and cooperativity of villin headpiece in single-molecule force spectroscopy”. Proc. Natl. Acad. Sci. U.S.A 110, 18156 (2013) sets the detection limit for the observable kinetics, which is different from the sampling frequencies. […] The ACF for the time series of force signal, Fi, with sampling rate δ and N data points, is calculated as,
# In a constant-force (CF) experiment, the RNA is held at a preset force through feedback control. The preset force typically fluctuated around the mean with a standard deviation ±0.15 pN. In this mode, data is recorded from 4-40 kHz to capture the fast intermediates. The plots are shown as extension vs. time (as in FIG. 6A). In force-jump (FJ) assay, the force is suddenly jumped from one force to another, and then held constant thereafter, as shown in FIGS. 23A-B.
# All FR, CF and FJ experiments were carried out at an ambient temperature, 25±0.5° C. The buffer in the microfluidics contained 10 mM Tris-HCl, pH 7.5 at 25° C., 250 mM NaCl, 3 mM MgCl2, and purine concentrations as indicated in wild-type aptamer. Unless stated otherwise, Mg^2+ concentration in the buffer was maintained at 3 mM in all experiments. The buffer in mutant m1 contained 5 mm Mg^2+ and 1 μM G, and in m3 contained 5 mM Mg^2+ and 200 nM Guanine. For the remaining m2, m4, m5 and m6 mutants, the buffer in single-molecule experiments was supplemented only with 3 mM Mg^2+ and 200 nM Guanine.
# In the force-ramp experiment, the trap was moved away (pull cycle) from the micropipette at 200 nm/sec, which corresponded to a loading rate of 7-8 pN/sec. This movement of the trap exerted a tension at the ends of the tethered RNA aptamer. […] In the constant-force (CF) experiment, the RNA was held at a preset force (FIG. 6A). The loading rate in CF experiments was zero. The preset force typically fluctuated around the mean with standard deviation ±0.15 pN. […]
# lac Z expression = assay: β-galactosidase reporter assay (xpt-lacZ fusion); format: cell-based, B. subtilis; settings: presence and absence of guanine; B. subtilis
# Method: Kissing-loop mutants were analyzed to determine whether they can exert riboswitch activities by controlling transcription termination, given that the guanine binding was retained in all of them. To test this, a β-galactosidase reporter assay was performed in B.subtilis. […] The gene expression is repressed in wild-type due to the transcription termination in the presence of guanine. […] The fast kissing dynamics between the L2-L3 probably have a stabilizing effect on P1, and therefore an increase in the transcription termination is observed. […] This underscores that the L2-L3 dynamics are directly involved in the P1-helix formation, which affects the terminator hairpin downstream that ultimately results in an alteration of the riboswitch activities.
# To assess if the aptamer mutants can exert a transcriptional control similar to the previously reported wild-type xpt-pbuX riboswitch, a xpt-lacZ fusion was constructed as described by Mandal et al., “Riboswitches control fundamental biochemical pathways in Bacillus subtilis and other bacteria”. Cell 113, 577-586 (2003). Briefly, nts −121 to +197 relative to the transcriptional start site of the xpt-pbuX operon from B. subtilis 1A1 (BGSC, Columbus, Ohio) was PCR amplified and cloned upstream of the lacZ reporter gene into pDG1661 vector. After confirming the cloned sequence, plasmid variants were integrated into the amyE locus of the 1A1 strain. Transformants were selected for double markers, specifically for chloramphenicol (5 μg/ml) resistance and sensitivity to spectinomycin (100 μg/ml). Selected B. subtilis colonies were subsequently grown in minimal media (25 g/L K2HPO4·3H2O, 6 g/L KH2PO4, 1 g/L sodium citrate, 0.2 g/l MgSO4·7H2O, 2 g/L Na2SO4, 50 μM FeCl3, 2 μM MnCl2, 50 μg/ml L-Tryptophan, 50 μg/ml L-Lysine, 50 μg/ml L-Methionine, 0.4 g/100 ml glucose, and 0.2 g/100 ml glutamate) at 37° C. with vigorous shaking. Purines were added at a final concentration of 0.1 mg/ml. Cells were harvested at mid-logarithmic growth phase (A600˜0.1-0.4), and resuspended in the above buffer for the reporter assay. The color development was recorded by measuring absorbance, A420 at the end of the reaction with appropriate controls. Data is represented in Miller Units calculated from the following relation:
# [formula] where Δt is the total duration taken in the substrate cleavage by […], measured as absorbance, A420. The Miller Units shown in FIG. 4A represents mean±standard deviation from 3 independent experiments, wherein each independent experiment was performed in duplicate.
# [2] = Isothermal titration calorimetry (ITC); format: binding
# Method: For ITC experiments, wild-type G-aptamer and the mutant RNAs were synthesized by in vitro transcription of the DNA template and purified by denaturing polyacrylamide gel electrophoresis (PAGE). The ligand guanine was introduced in the syringe, while the RNA into the sample cell at a final concentration of 10 μM and 1 μM respectively. The concentrations were determined by absorbance reading using ε260=12010 M^−1 cm^−1 (guanine) and ε260=711400 M^−1 cm^−1 (RNA). The buffer in the syringe and the sample cell contained 50 mM K^+ Hepes (pH 7.5), 100 mM KCl, and 10 mM MgCl2. Binding reactions were performed at 30° C. on a MicroCal iTC200 instrument (Malvern) with a reference power of 6 μcal/sec, an initial delay of 60 secs and a stirring speed of 750 rpm. Guanine was titrated into the sample cell in 16 injections (2.5 μl each). The injection rate was 0.5 μl/sec and the spacing between the injections was maintained at 120 sec. Data was baseline corrected and fitted to a single-site binding model to obtain association constant (KA), stoichiometry (n) and binding enthalpy, ΔH. The dissociation constant (KD) and the binding free energy, ΔG was obtained from the fitted parameters using the following relations. All data analysis was performed using the Origin ITC software.
# The ITC results are reported as mean±standard deviation from three independent experiments.
# [3] = transition C′A (merged C′B and BA), F 6.1 pN, 5 mM Mg^2+
# [4] = transition C′A (merged C′B and BA), F 6.1 pN, 3 mM Mg^2+
# [5] = transition BA (P1 folding), F 8.5 pN, 3 mM Mg^2+
# [6] = transition C′B (L2-L3 folding), F 8.5 pN, 3 mM Mg^2+
# [7] = transition DC (P3 folding), F 12.0 pN, 3 mM Mg^2+
# [8] = transition ED (P2 folding), F 13.5 pN, 3 mM Mg^2+
molecule,measurement,setting,value
B1,Equilibrium force F^eq,"[1]; transition C′A (merged C′B and BA), 5 mM Mg^2+, 200 nM G (rates at 6.1 pN)",6 pN and 6.1 ± 0.02 pN
same,Folding rate kf,[1]; [3],0.8 ± 0.05 s⁻¹
same,Transition distance ΔX,[1]; [3],12.5 ± 0.4 nm
same,Unfolding rate ku,[1]; [3],0.69 ± 0.05 s⁻¹
same,ΔG (0),"[1]; transition C′A (merged C′B and BA), from data at 6.1 pN, 5 mM Mg^2+",−12.7 ± 0.6 kBT
same,lac Z expression / transcriptional control (in words),lac Z expression,completely de-repressed
same,KD off relative to wild-type,[2],~18 fold
B2,Equilibrium force F^eq,"[1]; transition C′A (merged C′B and BA), 3 mM Mg^2+, 200 nM G (rates at 6.1 pN)",6 pN and 6.0 ± 0.03 pN
same,Folding rate kf,[1]; [4],0.53 ± 0.06 s⁻¹
same,Transition distance ΔX,[1]; [4],12.4 ± 0.4 nm
same,Unfolding rate ku,[1]; [4],0.8 ± 0.11 s⁻¹
same,ΔG (0),"[1]; transition C′A (merged C′B and BA), from data at 6.1 pN, 3 mM Mg^2+",−11.9 ± 0.6 kBT
same,lac Z expression / transcriptional control (in words),lac Z expression,completely de-repressed
same,KD off relative to wild-type,[2],~9 fold
same,Kd,"[2]; 30° C., 50 mM K^+ Hepes pH 7.5, 100 mM KCl, 10 mM MgCl2, read-out: KD for guanine",36 ± 0.2 nM
B3,Equilibrium force F^eq,"[1]; transition BA (P1 folding), 3 mM Mg^2+, 200 nM G (rates at 8.5 pN)",8.8 ± 0.2 pN
same,Folding rate kf,[1]; [5],0.4 ± 0.05 s⁻¹
same,Unfolding rate ku,[1]; [5],0.2 ± 0.05 s⁻¹
same,Transition distance ΔX,"[1]; transition BA (P1 folding), F 8.5 pN, 3 mM Mg^2+, no helix width adjustment",9.5 ± 0.3 nm
same,ΔG (0),"[1]; transition BA (P1 folding), from data at 8.5 pN, 3 mM Mg^2+",−14.3 kBT and −14.3 ± 0.7 kBT
same,Equilibrium force F^eq,"[1]; transition C′B (L2-L3 folding), 3 mM Mg^2+, 200 nM G (rates at 8.5 pN)",8.4 ± 0.3 pN
same,Folding rate kf,[1]; [6],1.4 ± 0.2 s⁻¹
same,Transition distance ΔX,[1]; [6],3.6 ± 0.2 nm
same,Unfolding rate ku,[1]; [6],1.5 ± 0.2 s⁻¹
same,ΔG (0),"[1]; transition C′B (L2-L3 folding), from data at 8.5 pN, 3 mM Mg^2+",−7.4 ± 0.5 kBT
same,Equilibrium force F^eq,"[1]; transition DC (P3 folding), 3 mM Mg^2+, 200 nM G (rates at 12.0 pN)",11.8 ± 0.1 pN
same,Folding rate kf,[1]; [7],15.9 ± 0.4 s⁻¹
same,Transition distance ΔX,[1]; [7],7.7 ± 0.2 nm
same,Unfolding rate ku,[1]; [7],17.5 ± 0.5 s⁻¹
same,ΔG (0),"[1]; transition DC (P3 folding), from data at 12.0 pN, 3 mM Mg^2+",−15.5 ± 0.6 kBT
same,Equilibrium force F^eq,"[1]; transition ED (P2 folding), 3 mM Mg^2+, 200 nM G (rates at 13.5 pN)",13.5 ± 0.03 pN
same,Folding rate kf,[1]; [8],10.5 ± 0.4 s⁻¹
same,Transition distance ΔX,[1]; [8],7.0 ± 0.2 nm
same,Unfolding rate ku,[1]; [8],13.2 ± 0.5 s⁻¹
same,ΔG (0),"[1]; transition ED (P2 folding), from data at 13.5 pN, 3 mM Mg^2+",−16.0 ± 0.7 kBT
same,lac Z expression / transcriptional control (in words),lac Z expression,stringent control
